We go through one protein from patent publication US20090191228.

In data set [1] the target is CH5-1 (nH5 of A/VN/1203/04 misfolded by three heat cycles 25-85 C).
The target of data set [2] is CH5-2 (nH5 of A/VN/1203/04 heat cycled at pH 2).
Data set [3] deals with CH5-3 (nH5 of A/VN/1203/04 heat cycled at pH 12).
Data set [4] deals with CH5-4 (nH5 of A/VN/1203/04 incubated with 100 mM glucose-6-phosphate for 67 h at 80 C).
For data set [5], the target named is T1, dOVA-1 (ovalbumin misfolded by HCl treatment, 40 min 37 C, neutralized), P01012.
T1 chain: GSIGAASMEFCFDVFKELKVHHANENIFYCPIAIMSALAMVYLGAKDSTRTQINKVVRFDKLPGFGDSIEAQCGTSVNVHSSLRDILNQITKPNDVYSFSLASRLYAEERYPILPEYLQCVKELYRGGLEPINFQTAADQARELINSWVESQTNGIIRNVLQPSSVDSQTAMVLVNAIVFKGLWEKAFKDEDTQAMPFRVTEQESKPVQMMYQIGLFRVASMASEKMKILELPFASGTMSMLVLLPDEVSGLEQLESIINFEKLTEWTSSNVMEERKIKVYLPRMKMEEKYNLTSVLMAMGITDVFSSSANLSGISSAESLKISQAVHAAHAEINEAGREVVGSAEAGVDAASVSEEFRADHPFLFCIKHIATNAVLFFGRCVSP

For data set [6], the target named is T2, dOVA-2 (ovalbumin misfolded by five heat cycles 30 to 85 C), P01012.
T2 chain: T1 chain

Data set [7] addresses T3, dOVA-3 (ovalbumin misfolded by about 16 h at 75 C), P01012.
T3 chain: T1 chain

Data set [8] addresses nH5 (non-treated H5 of H5N1 strain A/Vietnam/1203/04, Protein Sciences, NaCl adjusted to 171 mM).
For data set [9], the target named is T4, nOVA (non-treated ovalbumin, 1 mg/ml in PBS), P01012.
T4 chain: T1 chain

B1: tissue type plasminogen activator (tPA) (protein)
chain: SYQVICRDEKTQMIYQQHQSWLRPVLRSNRVEYCWCNSGRAQCHSVPVKSCSEPRCFNGGTCQQALYFSDFVCQCPEGFAGKCCEIDTRATCYEDQGISYRGTWSTAESGAECTNWNSSALAQKPYSGRRPDAIRLGLGNHNYCRNPDRDSKPWCYVFKAGKYSSEFCSTPACSEGNSDCYFGNGSAYRGTHSLTESGASCLPWNSMILIGKVYTAQNPSAQALGLGKHNYCRNPDGDAKPWCHVLKNRRLTWEYCDVPSCSTCGLRQYSQPQFRIKGGLFADIASHPWQAAIFAKHRRSPGERFLCGGILISSCWILSAAHCFQERFPPHHLTVILGRTYRVVPGEEEQKFEVEKYIVHKEFDDDTYDNDIALLQLKSDSSRCAQESSVVRTVCLPPADLQLPDWTECELSGYGKHEALSPFYSERLKEAHVRLYPSSRCTSQHLLNRTVTDNMLCAGDTRSGGPQANLHDACQGDSGGPLVCLNDGRMTLVGIISWGLGCGQKDVPGVYTKVTNYLDWIRDNMRP
As to B1, the “tPA mediated plasminogen activation assay” value is on record as “CH5-1 (50% of standard)” in [1]; “CH5-2 (150% of standard)” in [2]; “CH5-3 (200% of standard)” in data set [3]; “CH5-4 (37% of standard)” in data set [4]; “nH5 (140% of standard)” in [8]. The tPA activation potency, Activation at 10 ug/mL (% of reference) was 97.4 in [5], 107 in data set [6], 60.9 in data set [7] and 48.8 in data set [9]. Also, the tPA activation potency, Activation at 25 ug/mL (% of reference) worked out at 136 in data set [5], 107 in data set [6], 79 in [7] and 48.1 in [9]. The same protein showed a tPA activation potency (tPA-mediated plasminogen activation, chromogenic); reference dOVA-2 at 80 ug/mL, column Activation at 10 ug/mL (% of reference) in data set [6] of 100. The same protein gave a tPA activation potency (tPA-mediated plasminogen activation, chromogenic); reference dOVA-2 at 80 ug/mL, column Activation at 25 ug/mL (% of reference) in [6] of 100. Moreover, the “tPA/Plg activating potential, cross-beta ovalbumin standard at 10 ug/ml” value in data set [6] is “at 10 and 50 ug/ml, tPA/plg activation is 100% and 85%, respectively”. Also, the “tPA/Plg activating potential, cross-beta ovalbumin standard at 30 ug/ml” value in data set [6] was “The activating potential of cross-beta ovalbumin standard at 30 ug/ml is set to 100%”. Besides, the “tPA/Plg activating potential, cross-beta ovalbumin standard at 50 ug/ml” value in data set [6] is “at 10 and 50 ug/ml, tPA/plg activation is 100% and 85%, respectively”.
